According to publication PMC8809517, “Cofactor-independent RNA editing by a synthetic S-type PPR protein”:

T1: GFP-9S library array, motif 4 ND N98S;D124W (synthetic construct, N98S;D124W)
T1 chain: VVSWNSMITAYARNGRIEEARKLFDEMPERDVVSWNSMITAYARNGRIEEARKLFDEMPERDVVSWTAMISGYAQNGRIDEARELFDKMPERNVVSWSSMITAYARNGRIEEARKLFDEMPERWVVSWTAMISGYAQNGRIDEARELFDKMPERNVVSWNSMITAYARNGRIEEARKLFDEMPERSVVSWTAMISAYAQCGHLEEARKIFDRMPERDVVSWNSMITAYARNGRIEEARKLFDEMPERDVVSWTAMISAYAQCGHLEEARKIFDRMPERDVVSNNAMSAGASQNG

T2: GFP-9S library array, motif 4 ND N98S;D124R (synthetic construct, N98S;D124R)
T2 chain: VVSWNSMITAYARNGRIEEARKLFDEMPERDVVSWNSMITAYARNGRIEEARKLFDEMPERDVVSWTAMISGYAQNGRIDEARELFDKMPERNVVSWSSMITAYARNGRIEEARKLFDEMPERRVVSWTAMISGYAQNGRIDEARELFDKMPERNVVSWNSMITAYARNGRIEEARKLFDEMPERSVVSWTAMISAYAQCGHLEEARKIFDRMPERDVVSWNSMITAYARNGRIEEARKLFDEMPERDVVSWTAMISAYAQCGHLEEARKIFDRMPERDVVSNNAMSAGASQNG

T3: GFP-9S library array, motif 4 ND N98F;D124F (synthetic construct, N98F;D124F)
T3 chain: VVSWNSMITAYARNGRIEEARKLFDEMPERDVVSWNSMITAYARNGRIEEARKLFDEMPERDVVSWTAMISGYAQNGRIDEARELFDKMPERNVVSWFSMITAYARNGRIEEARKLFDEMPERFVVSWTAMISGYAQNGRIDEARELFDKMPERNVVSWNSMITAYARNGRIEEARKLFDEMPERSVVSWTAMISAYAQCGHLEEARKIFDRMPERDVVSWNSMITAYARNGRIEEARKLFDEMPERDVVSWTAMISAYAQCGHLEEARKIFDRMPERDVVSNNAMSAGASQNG

T4: GFP-9S library array, motif 4 ND N98L;D124M (synthetic construct, N98L;D124M)
T4 chain: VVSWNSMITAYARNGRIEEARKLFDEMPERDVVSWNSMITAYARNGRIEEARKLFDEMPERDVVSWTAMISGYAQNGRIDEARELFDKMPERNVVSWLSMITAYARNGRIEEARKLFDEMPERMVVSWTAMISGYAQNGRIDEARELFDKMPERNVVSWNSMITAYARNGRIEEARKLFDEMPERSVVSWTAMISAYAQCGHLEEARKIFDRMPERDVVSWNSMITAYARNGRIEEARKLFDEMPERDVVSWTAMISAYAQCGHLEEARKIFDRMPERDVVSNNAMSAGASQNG

T5: GFP-9S library array, motif 4 ND D124T (synthetic construct, D124T)
T5 chain: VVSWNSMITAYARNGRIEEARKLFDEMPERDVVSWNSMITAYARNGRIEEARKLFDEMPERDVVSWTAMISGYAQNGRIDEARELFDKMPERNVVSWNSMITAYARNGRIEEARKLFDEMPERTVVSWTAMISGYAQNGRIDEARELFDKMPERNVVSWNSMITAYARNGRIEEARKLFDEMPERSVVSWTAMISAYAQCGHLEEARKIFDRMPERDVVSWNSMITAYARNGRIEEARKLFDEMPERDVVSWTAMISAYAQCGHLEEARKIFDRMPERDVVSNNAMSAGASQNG


Tests used:
Assay in all cases: high-throughput RNA pulldown from lysate on Ni-NTA beads; HRP: 50 mM Tris pH 8, 150 mM NaCl, 1 mM beta-mercaptoethanol, 50 ug/ml BSA, 3 ug/ml yeast RNA, 0.5% heparin; ITC and FP: Tris pH 8, 200 mM KCl, 5% glycerol; MST: 50 mM Tris pH 8, 200 mM NaCl, 1 mM DTT, BSA, heparin, 0.05% Tween 20
Conditions in all cases: tags: N-terminal His-eGFP
[1] = molecular target: T1, GFP-9S library array, motif 4 ND …
[2] = molecular target: T2, GFP-9S library array, motif 4 ND …
[3] = molecular target: T3, GFP-9S library array, motif 4 ND …
[4] = molecular target: T4, GFP-9S library array, motif 4 ND …
[5] = molecular target: T5, GFP-9S library array, motif 4 ND D124T

| Binder | Kd ([1]; label: 5' Cy5) [nM] | Kd ([2]; label: 5' Cy5) [nM] | Kd ([3]; label: 5' Cy5) [nM] | Kd ([4]; label: 5' Cy5) [nM] | Kd ([5]; label: 5' Cy5) [nM] | Kd ([1]; label: 5' IRDye 800CW) [nM] | Kd ([2]; label: 5' IRDye 800CW) [nM] | Kd ([3]; label: 5' IRDye 800CW) [nM] | Kd ([4]; label: 5' IRDye 800CW) [nM] | Kd ([5]; label: 5' IRDye 800CW) [nM] |
| --- | --- | --- | --- | --- | --- | --- | --- | --- | --- | --- |
| AUUACACGUGA (ssRNA) [Cy5-rpoA] | 90.7 | 87.7 | 76.4 | 104 | 8.35 | – | – | – | – | – |
| AUUAGACGUGA (ssRNA) [Cy5-rpoA-G] | 126 | 97.8 | 92.1 | 122 | 291 | – | – | – | – | – |
| AUUAAACGUGA (ssRNA) [IR-rpoA-A] | – | – | – | – | – | 218 | 63.5 | 200 | 381 | 215 |
| AUUAUACGUGA (ssRNA) [IR-rpoA-U] | – | – | – | – | – | 156 | 109 | 140 | 176 | 24.6 |
